Measured values: patent publication US20180155451A1 (published 2018)
Where a chain is given by its changes, count along the chain named. Names may count otherwise. Blank lines part the entries; values can stand above or below the binder they belong to.

Tests used:
FcγRIIb [1] = biological target: T1, FcγRIIb (human, UniProt P31994 43-217); test: SPR (Biacore), relative binding; compared with GpH7-A5/GpH7-B12/GpL16-k0
T1 construct: extracellular domain; for crystallography expressed with Kifunesine and trimmed with Endo F1; also called FcgRIIb; FcgR2b; not shown: His tag attached to the C terminus
T1 sequence (looked up): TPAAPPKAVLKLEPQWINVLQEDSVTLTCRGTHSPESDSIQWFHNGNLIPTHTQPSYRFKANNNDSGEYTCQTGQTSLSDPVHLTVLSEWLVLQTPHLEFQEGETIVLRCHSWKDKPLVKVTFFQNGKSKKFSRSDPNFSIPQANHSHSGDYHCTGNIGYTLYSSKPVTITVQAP
Procedure: (§1) Analysis of interaction between objective antibody and the FcγR was carried out using Biacore T100 (GE Healthcare). HBS-EP+ (GE Healthcare) was used as the running buffer, and the measurement temperature was set to 25° C. Chips produced by immobilizing the antigen peptide by the amine coupling method to a Series S Sencor Chip CM5 (GE Healthcare), or alternatively, chips produced by allowing preliminarily biotinylated antigen peptides to interact with and immobilize onto a Series S Sensor Chip SA (certified) (GE Healthcare) were used. Antibodies of interest were captured onto an antigen peptide-immobilized chip, and allowed to interact to each FcγR diluted with running buffer. To regenerate and repeatedly use the chip, the antibodies captured on the chip were washed off by reacting 10 mM glycine-HCl, pH 1.5.

FcγRIIIa [2] = biological target: T2, FcγRIIIa (human, UniProt P08637 17-208); test: SPR (Biacore T100); antibody captured on an antigen peptide chip, FcγRIIIa as analyte; 1:1 Langmuir kinetic fit
T2 construct: extracellular domain; The protein is soluble, His-tagged, and was expressed in FreeStyle293 cells; also called FcgRIIIa; CD16A; not shown: His tag attached to the C terminus
Procedure: (§2) Then, K334G was also assessed in the same manner. GpH7-TA40 (SEQ ID NO: 47) resulting from the introduction of K334G into GpH7-TA7 was constructed, and expressed and prepared in combination with GpH7-B78 according to the method described in Reference Example 1. Furthermore, GpH7-TA50 (SEQ ID NO: 48) resulting from the introduction of K334G into GpH7-B78 was constructed, and expressed and prepared in combination with GpH7-TA7 according to the method described in Reference Example 1. To assess the effect of combinations with K334G, the prepared antibodies were compared for the FcγRIIIa binding according to the method described in Reference Example 2 (Table 18).
as §1

FcγRIIIa [3] = biological target: T2, FcγRIIIa; test: SPR (Biacore); KD of GpH7-TA7/GpH7-B78/GpL16-k0 for FcγRIIIa divided by the KD of this antibody (the reference itself)
Procedure: as §2
as §1, with “To regenerate and repeatedly use the chip, the antibodies captured on the chip were washed off by reacting 10 mM glycine-HCl, pH 1.5.” left out

FcγRIIb [4] = biological target: T1, FcγRIIb; test: SPR (Biacore), relative binding; compared with GpH7-A48/GpH7-B3/GpL16-k0
Procedure: as §1

T2 sequence (P08637 17-208): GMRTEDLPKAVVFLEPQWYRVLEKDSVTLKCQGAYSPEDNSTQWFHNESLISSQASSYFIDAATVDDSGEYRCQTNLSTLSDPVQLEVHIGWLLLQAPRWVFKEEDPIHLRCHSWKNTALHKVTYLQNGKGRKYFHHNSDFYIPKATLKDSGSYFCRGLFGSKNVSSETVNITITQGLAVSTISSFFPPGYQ

binding result (FcγRIIb [1]): binds
B1: GpH7-A5/GpH7-B41/GpL16-k0 (antibody, human IgG1, kappa)
heavy 1: not shown
heavy 2: QVQLVQSGAEVKKPGASVTVSCKASGYTFTDYEMHWIRQPPGEGLEWIGAIDPKTGDTAYSESFQDRVTLTADKSTSTAYMELSSLTSEDTAVYYCTRFYSYTYWGQGTLVTVSSASTKGPSVFPLAPSSKSTSGGTAALGCLVKDYFPEPVTVSWNSGALTSGVHTFPAVLQSSGLYSLSSVVTVPSSSLGTQTYICNVNHKPSNTKVDKKVEPKSCDKTHTCPPCPAPEDLGGPSVFLFPPKPKDTLMISRTPEVTCVVVDVSHEDPEVKFNWYVDGVEVHNAKTKPREEQYNSTYRVVSVLTVLHQDWLNGKEYKCKVSNKALRAPIEKTISKAKGQPREPQVYTLPPSRDELTKNQVSLTCLVKGFYPSDIAVEWESNGQPENNYKTTPPVLDSDGSFFLYSKLTVDKSRWQQGNVFSCSVMHEALHNHYTQESLSLSP
light: DIVMTQSPLSLPVTPGEPASISCQASESLVHSNRNTYLHWYLQKPGQSPQLLIYKVSNRFSGVPDRFSGSGSGTDFTLKISRVEAEDVGVYYCSQNTHVPPTFGQGTKVEIERTVAAPSVFIFPPSDEQLKSGTASVVCLLNNFYPREAKVQWKVDNALQSGNSQESVTEQDSKDSTYSLSSTLTLSKADYEKHKVYACEVTHQGLSSPVTKSFNRGEC
notes: L234D and P329R in the same H chain

Kd (FcγRIIIa [2]): 4.1 nM | KD ratio (FcγRIIIa [3]): 1
B2: GpH7-TA7/GpH7-B78/GpL16-k0 (antibody, human IgG1, kappa)
heavy 1: B1 heavy 2 with D232Y, G234W, S296A, R327P, D354K, H433R, E437K
heavy 2: B1 heavy 2 with D232L, S237D, R327P, A328L, I330E
light: B1 light
notes: Heterodimerized anti-glypican-3 IgG1 antibody with two different H chains and a common L chain; also called TA7/B78

binding result (FcγRIIb [4]): binds
B3: GpH7-A45/GpH7-B3/GpL16-k0 (antibody, human IgG1, kappa)
heavy 1: B1 heavy 2 with D232L, G235A, D354K, H433R, E437K
heavy 2: not shown
light: B1 light
notes: G237A and P329R in the same H chain
